Test results taken from patent publication US20230295348A1 (NOVIMMUNE, published 2023).

T1: human recombinant IL-2Rγ (human, UniProt P31785 23-262, limits assumed)
T1 construct: Biotinylated and captured on streptavidin plates in the ELISA; also called IL-2Rg; IL2Rg
T1 sequence (looked up): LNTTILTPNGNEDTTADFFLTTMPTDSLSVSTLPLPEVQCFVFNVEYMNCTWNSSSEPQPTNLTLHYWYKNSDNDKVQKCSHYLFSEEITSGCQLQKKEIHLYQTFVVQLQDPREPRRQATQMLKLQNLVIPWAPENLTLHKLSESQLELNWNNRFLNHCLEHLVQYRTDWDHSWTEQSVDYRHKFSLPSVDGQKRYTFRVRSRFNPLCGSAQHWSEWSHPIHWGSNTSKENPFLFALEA


Key:
human recombinant IL-2Rγ = target: T1, human recombinant IL-2Rγ; assay: direct ELISA, biotinylated recombinant protein on streptavidin plates
human recombinant HER2 = target: T2, human recombinant HER2 (human, UniProt P04626 23-652); assay: as above
T2 construct: Biotinylated and captured on streptavidin plates in the ELISA; also called human epidermal growth factor receptor 2

Binder	binding result (human recombinant IL-2Rγ)	binding result (human recombinant HER2)
AM5O35 (bispecific antibody, human IgG1, kappa, lambda, L234A L235A, κλ-body: common heavy chain, kappa anti-IL2Rγ light chain (AM5), lambda anti-MSLN light chain (O35); also called AM5O35/N) heavy: not shown light 1: not shown light 2: QPVLTQPVSLSASPGASVSLTCTLRSDIRVRDYRIFWYQQKPGSPPQYLLRYKTDSDKQQGSGVPSRFSGSKDASANAGILLISGLQSEDEADYYCMIWHRTTGTSLVFGGGTKLTVLGQPKAAPSVTLFPPSSEELQANKATLVCLISDFYPGAVTVAWKADSSPVKAGVETTTPSKQSNNKYAASSYLSLTPEQWKSHRSYSCQVTHEGSTVEKTVAPTECS	binds	
AM5O41 (bispecific antibody, human IgG1, kappa, lambda, L234A L235A, κλ-body: common heavy chain, kappa anti-IL2Rγ light chain (AM5), lambda anti-MSLN light chain (O41); also called AM5O41/N) heavy: not shown light 1: not shown light 2: SYVLTQPPSVSVAPGKTARITCGGNKIGHRAVHWYQQKPGQAPVLVIYYTYERPSGIPERFSGSNSGNTATLTISRVEAGDEADYYCQVWDWYSEGGVVFGGGTKLTVLGQPKAAPSVTLFPPSSEELQANKATLVCLISDFYPGAVTVAWKADSSPVKAGVETTTPSKQSNNKYAASSYLSLTPEQWKSHRSYSCQVTHEGSTVEKTVAPTECS	binds	
AM1N2-19 (bispecific antibody, human IgG1, kappa, lambda, L234A L235A, κλ-body: common heavy chain, kappa anti-IL2Rγ light chain (AM1), lambda anti-HER2 light chain (N2-19); also called AM1N2-19/N) heavy: not shown light 1: DIQMTQSPSSLSASVGDRVTITCRASQSIYYYLNWYQQKPGKAPKLLIYDASALQSGVPSRFSGSGSGTDFTLTISSLQPEDFATYYCQQIDFTAGSITFGQGTKVEIKRTVAAPSVFIFPPSDEQLKSGTASVVCLLNNFYPREAKVQWKVDNALQSGNSQESVTEQDSKDSTYSLSSTLTLSKADYEKHKVYACEVTHQGLSSPVTKSFNRGEC light 2: QSVLTQPPSVSGAPGQRVTISCTGSSSNIENTHTVHWYQQLPGTAPKLLIYDASIRPSGVPDRFSGSKSGTSASLAITGLQAEDEADYYCQSYDWLRGAQVFGGGTKLTVLGQPKAAPSVTLFPPSSEELQANKATLVCLISDFYPGAVTVAWKADSSPVKAGVETTTPSKQSNNKYAASSYLSLTPEQWKSHRSYSCQVTHEGSTVEKTVAPTECS	binds	binds
AM4N2-19 (bispecific antibody, human IgG1, kappa, lambda, L234A L235A, κλ-body: common heavy chain, kappa anti-IL2Rγ light chain (AM4), lambda anti-HER2 light chain (N2-19); also called AM4N2-19/N) heavy: not shown light 1: DIQMTQSPSTLSASVGDRVTITCRASQTIYGPLNWYQQKPGKAPKLLIYSTSYLESGVPSRFSGSGSGTEFTLTISSLQPDDFATYYCQQAGYASAPTFGQGTKVEIKRTVAAPSVFIFPPSDEQLKSGTASVVCLLNNFYPREAKVQWKVDNALQSGNSQESVTEQDSKDSTYSLSSTLTLSKADYEKHKVYACEVTHQGLSSPVTKSFNRGEC light 2: QSVLTQPPSVSGAPGQRVTISCTGSSSNIENTHTVHWYQQLPGTAPKLLIYDASIRPSGVPDRFSGSKSGTSASLAITGLQAEDEADYYCQSYDWLRGAQVFGGGTKLTVLGQPKAAPSVTLFPPSSEELQANKATLVCLISDFYPGAVTVAWKADSSPVKAGVETTTPSKQSNNKYAASSYLSLTPEQWKSHRSYSCQVTHEGSTVEKTVAPTECS	binds	binds
AM2N2-19 (bispecific antibody, human IgG1, kappa, lambda, L234A L235A, κλ-body: common heavy chain, kappa anti-IL2Rγ light chain (AM2), lambda anti-HER2 light chain (N2-19); also called AM2N2-19/N) heavy: not shown light 1: DIQLTQSPSFLSASVGDRVTITCRASQTIDAPLRWYQQKPGKAPKLLIYLTSSLQSGVPSRFSGSGSGTEFTLTISSLQPEDFATYYCQQGYAAGPSTFGQGTKVEIKRTVAAPSVFIFPPSDEQLKSGTASVVCLLNNFYPREAKVQWKVDNALQSGNSQESVTEQDSKDSTYSLSSTLTLSKADYEKHKVYACEVTHQGLSSPVTKSFNRGEC light 2: QSVLTQPPSVSGAPGQRVTISCTGSSSNIENTHTVHWYQQLPGTAPKLLIYDASIRPSGVPDRFSGSKSGTSASLAITGLQAEDEADYYCQSYDWLRGAQVFGGGTKLTVLGQPKAAPSVTLFPPSSEELQANKATLVCLISDFYPGAVTVAWKADSSPVKAGVETTTPSKQSNNKYAASSYLSLTPEQWKSHRSYSCQVTHEGSTVEKTVAPTECS	binds	binds
AM5N2-19 (bispecific antibody, human IgG1, kappa, lambda, L234A L235A, κλ-body: common heavy chain, kappa anti-IL2Rγ light chain (AM5), lambda anti-HER2 light chain (N2-19); also called AM5N2-19/N) heavy: not shown light 1: not shown light 2: QSVLTQPPSVSGAPGQRVTISCTGSSSNIENTHTVHWYQQLPGTAPKLLIYDASIRPSGVPDRFSGSKSGTSASLAITGLQAEDEADYYCQSYDWLRGAQVFGGGTKLTVLGQPKAAPSVTLFPPSSEELQANKATLVCLISDFYPGAVTVAWKADSSPVKAGVETTTPSKQSNNKYAASSYLSLTPEQWKSHRSYSCQVTHEGSTVEKTVAPTECS	binds	binds
AM8N2-19 (bispecific antibody, human IgG1, kappa, lambda, L234A L235A, κλ-body: common heavy chain, kappa anti-IL2Rγ light chain (AM8), lambda anti-HER2 light chain (N2-19); also called AM8N2-19/N) heavy: not shown light 1: EIVLTQSPGTLSLSPGERATLSCRASQDVATRGLAWYQQKPGQAPRLLIYGASSRATGIPDRFSGSGSGTDFTLTISRLEPEDFAVYYCQQYELEHPATFGQGTKVEIKRTVAAPSVFIFPPSDEQLKSGTASVVCLLNNFYPREAKVQWKVDNALQSGNSQESVTEQDSKDSTYSLSSTLTLSKADYEKHKVYACEVTHQGLSSPVTKSFNRGEC light 2: QSVLTQPPSVSGAPGQRVTISCTGSSSNIENTHTVHWYQQLPGTAPKLLIYDASIRPSGVPDRFSGSKSGTSASLAITGLQAEDEADYYCQSYDWLRGAQVFGGGTKLTVLGQPKAAPSVTLFPPSSEELQANKATLVCLISDFYPGAVTVAWKADSSPVKAGVETTTPSKQSNNKYAASSYLSLTPEQWKSHRSYSCQVTHEGSTVEKTVAPTECS	binds	binds
AM6N2-19 (bispecific antibody, human IgG1, kappa, lambda, L234A L235A, κλ-body: common heavy chain, kappa anti-IL2Rγ light chain (AM6), lambda anti-HER2 light chain (N2-19); also called AM6N2-19/N) heavy: not shown light 1: not shown light 2: QSVLTQPPSVSGAPGQRVTISCTGSSSNIENTHTVHWYQQLPGTAPKLLIYDASIRPSGVPDRFSGSKSGTSASLAITGLQAEDEADYYCQSYDWLRGAQVFGGGTKLTVLGQPKAAPSVTLFPPSSEELQANKATLVCLISDFYPGAVTVAWKADSSPVKAGVETTTPSKQSNNKYAASSYLSLTPEQWKSHRSYSCQVTHEGSTVEKTVAPTECS	binds	binds

Results, then the binder that gave them:

binding result (human recombinant IL-2Rγ)	binding result (human recombinant HER2)	Binder
binds	binds	AM3N2-19 (bispecific antibody, human IgG1, kappa, lambda, L234A L235A, κλ-body: common heavy chain, kappa anti-IL2Rγ light chain (AM3), lambda anti-HER2 light chain (N2-19); also called AM3N2-19/N) heavy: not shown light 1: DIQMTQSPSTLSASVGDTVTITCRASHYITTWLAWYQQKPGKAPKLLIYDVSSLESGVPSRFRGRGSGTEFTLTISSLQPDDFATYYCQQYESYSPTFGQGTKVEIKRTVAAPSVFIFPPSDEQLKSGTASVVCLLNNFYPREAKVQWKVDNALQSGNSQESVTEQDSKDSTYSLSSTLTLSKADYEKHKVYACEVTHQGLSSPVTKSFNRGEC light 2: QSVLTQPPSVSGAPGQRVTISCTGSSSNIENTHTVHWYQQLPGTAPKLLIYDASIRPSGVPDRFSGSKSGTSASLAITGLQAEDEADYYCQSYDWLRGAQVFGGGTKLTVLGQPKAAPSVTLFPPSSEELQANKATLVCLISDFYPGAVTVAWKADSSPVKAGVETTTPSKQSNNKYAASSYLSLTPEQWKSHRSYSCQVTHEGSTVEKTVAPTECS
binds	binds	AM7N2-19 (bispecific antibody, human IgG1, kappa, lambda, L234A L235A, κλ-body: common heavy chain, kappa anti-IL2Rγ light chain (AM7), lambda anti-HER2 light chain (N2-19); also called AM7N2-19/N) heavy: not shown light 1: DIQLTQSPSFLSASVGDRVTITCRASQDIGIELAWYQQKPGKAPKLLIYFESHLQSGVPSRFSGSGSGTEFTLTISSLQPEDFATYYCQQIRIDPTFGQGTKVEIKRTVAAPSVFIFPPSDEQLKSGTASVVCLLNNFYPREAKVQWKVDNALQSGNSQESVTEQDSKDSTYSLSSTLTLSKADYEKHKVYACEVTHQGLSSPVTKSFNRGEC light 2: QSVLTQPPSVSGAPGQRVTISCTGSSSNIENTHTVHWYQQLPGTAPKLLIYDASIRPSGVPDRFSGSKSGTSASLAITGLQAEDEADYYCQSYDWLRGAQVFGGGTKLTVLGQPKAAPSVTLFPPSSEELQANKATLVCLISDFYPGAVTVAWKADSSPVKAGVETTTPSKQSNNKYAASSYLSLTPEQWKSHRSYSCQVTHEGSTVEKTVAPTECS
binds		AM5O38 (bispecific antibody, human IgG1, kappa, lambda, L234A L235A, κλ-body: common heavy chain, kappa anti-IL2Rγ light chain (AM5), lambda anti-MSLN light chain (O38); also called AM5O38/N) heavy: not shown light 1: not shown light 2: QPVLTQPASLSASPGASASLTCTLRSGINVRDYRIFWYQQKPGSPPQYLLRYKSASDKQQGSGVPSRFSGSKDASANAGILLISGLQSEDEADYYCMIWHHDSEGHAFVFGGGTKLTVLGQPKAAPSVTLFPPSSEELQANKATLVCLISDFYPGAVTVAWKADSSPVKAGVETTTPSKQSNNKYAASSYLSLTPEQWKSHRSYSCQVTHEGSTVEKTVAPTECS
